Measured values as given in the supplement of paper PMC9233669.
Fewer inactive variants are shown than the library holds.

Experiments:
[1] = tested on: biotinyl-Trp-oxazolone; assay: self-aminoacylation, catalytic enhancement (BWO) (fold over background); higher = more active; k-Seq, kA / k0A0; sequences stand for … in GGGAAUGGAUCCACAUCUACGAAUUC…UUCACUGCAGACUUGACGAAGCUG
Procedure, shortened: (§1)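 The uncatalyzed rate is the low-activity peak of a bimodal Gaussian fit, and catalytic enhancement is median kA divided by it. The kA values came from pseudo-first-order fits, with 1000 bootstraps, of per-sequence fraction reacted measured by streptavidin capture, triplicate qPCR and Illumina sequencing. Mutagenized RNA pools with a 21-nt variable region (0.43 μM) were reacted with each biotinyl-aminoacyl-oxazolone at 2–1250 μM in 50 μL HEPES/NaCl/KCl/MgCl2/CaCl2 buffer with 5% acetonitrile, pH 6.9–7.0, for 90 minutes at room temperature.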

[2] = tested on: biotinyl-Leu-oxazolone; assay: self-aminoacylation, catalytic enhancement (BLO) (fold over background); higher = more active; k-Seq, kA / k0A0; sequences stand for … in GGGAAUGGAUCCACAUCUACGAAUUC…UUCACUGCAGACUUGACGAAGCUG
Procedure, shortened: as §1

[3] = tested on: biotinyl-Ile-oxazolone; assay: self-aminoacylation, catalytic enhancement (BIO) (fold over background); higher = more active; k-Seq, kA / k0A0; sequences stand for … in GGGAAUGGAUCCACAUCUACGAAUUC…UUCACUGCAGACUUGACGAAGCUG
Procedure, shortened: as §1

[4] = tested on: biotinyl-Met-oxazolone; assay: self-aminoacylation, catalytic enhancement (BMO) (fold over background); higher = more active; k-Seq, kA / k0A0; sequences stand for … in GGGAAUGGAUCCACAUCUACGAAUUC…UUCACUGCAGACUUGACGAAGCUG
Procedure, shortened: as §1

[5] = tested on: biotinyl-Phe-oxazolone; assay: self-aminoacylation, catalytic enhancement (BFO) (fold over background); higher = more active; k-Seq, kA / k0A0; sequences stand for … in GGGAAUGGAUCCACAUCUACGAAUUC…UUCACUGCAGACUUGACGAAGCUG
Procedure, shortened: as §1

[6] = tested on: biotinyl-Val-oxazolone; assay: self-aminoacylation, catalytic enhancement (BVO) (fold over background); higher = more active; k-Seq, kA / k0A0; sequences stand for … in GGGAAUGGAUCCACAUCUACGAAUUC…UUCACUGCAGACUUGACGAAGCUG
Procedure, shortened: as §1

Sequence	self-aminoacylation [1]	self-aminoacylation [2]	self-aminoacylation [3]	self-aminoacylation [4]	self-aminoacylation [5]	self-aminoacylation [6]
AUUGACCUAGGUCGUCGGGUG [Fam2.2 aminoacylation ribozyme variant]	2.2	1.6	1.78	1.44	10.2	1.81
AUUGACCUAGGUUAUCGGGUG [Fam2.2 aminoacylation ribozyme variant]	6.6	5.36	4.71	4.96	29.1	4.7
AUUGACCUCGGUCAUCGGGUG [Fam2.2 aminoacylation ribozyme variant]	3.78	4.55	3.05	4.12	20.3	3.69
AUUGCCAUGGUCAUCGAGUGA [Fam2.1 aminoacylation ribozyme variant]	11.6	10.1	4.75	9.29	53.5	4.81
AUUGCCCGGGUCAUCGAGUGA [Fam2.1 aminoacylation ribozyme variant]	6.49	7.35	3.01	6.39	45.4	3.8
AUUGCCCUAGUCAUCGAGUGA [Fam2.1 aminoacylation ribozyme variant]	6.87	4.97	2.73	5.83	23.6	3.21
AUUGCCCUCGUCAUCGAGUGA [Fam2.1 aminoacylation ribozyme variant]	3.9	3.58	2.21	3.34	17.4	2.08
AUUGCCCUGGUCACCGAGUGA [Fam2.1 aminoacylation ribozyme variant]	9.72	10.8	3.77	9.41	70	4.68
AUUGCCCUGGUCAUAGAGUGA [Fam2.1 aminoacylation ribozyme variant]	10.9	8.58	4.05	9.01	57.9	4.65
AUUGCCCUGGUCAUCCAGUGA [Fam2.1 aminoacylation ribozyme variant]	7.66	7.38	3.7	6.42	44.4	4.02
AUUGCCCUGGUCAUCGAGUGA [Fam2.1 aminoacylation ribozyme variant]	60	51.2	20.6	53.1	367	23.7
AUUGCCCUGGUCAUCGAGUUA [Fam2.1 aminoacylation ribozyme variant]	4.44	5.24	2.31	4.84	8.37	2.64
AUUGCCCUGGUCAUCUAGUGA [Fam2.1 aminoacylation ribozyme variant]	10.3	8.79	3.81	8.83	70.6	4.24
